According to article PMC8591539:
One block for each substance: values may come before it.

What was measured:
[1] = target: CRL4^DCAF1 (FL) (CUL4A-RBX1-DDB1-DCAF1), unneddylated (human) (UniProt Q13619); test: cryo-EM structure
[2] = target: CRL4^DCAF1 (FL) (CUL4A-RBX1-DDB1-DCAF1), unneddylated (human) (UniProt Q13619); test: SEC-MALS
[3] = target: CRL4^DCAF1 (FL) (R1247A) mutant (human) (UniProt Q13619); test: SEC-MALS
[4] = target: CRL4^DCAF1 (FL)-VPR complex (human | HIV-1) (UniProt Q13619); test: SEC-MALS
[5] = target: CRL4^DCAF1 (FL)-VPR-UNG2 complex (human | HIV-1 | not stated) (UniProt Q13619); test: SEC-MALS
[6] = target: CRL4^DCAF1(FL)-MERLIN complex (UniProt Q13619); test: SEC-MALS
[7] = target: DDB1-DCAF1 (FL) sub-complex (human) (UniProt Q16531); test: SEC-MALS

Chain of CRL4^DCAF1 (FL) (CUL4A-RBX1-DDB1-DCAF1), unneddylated (Q13619 whole entry): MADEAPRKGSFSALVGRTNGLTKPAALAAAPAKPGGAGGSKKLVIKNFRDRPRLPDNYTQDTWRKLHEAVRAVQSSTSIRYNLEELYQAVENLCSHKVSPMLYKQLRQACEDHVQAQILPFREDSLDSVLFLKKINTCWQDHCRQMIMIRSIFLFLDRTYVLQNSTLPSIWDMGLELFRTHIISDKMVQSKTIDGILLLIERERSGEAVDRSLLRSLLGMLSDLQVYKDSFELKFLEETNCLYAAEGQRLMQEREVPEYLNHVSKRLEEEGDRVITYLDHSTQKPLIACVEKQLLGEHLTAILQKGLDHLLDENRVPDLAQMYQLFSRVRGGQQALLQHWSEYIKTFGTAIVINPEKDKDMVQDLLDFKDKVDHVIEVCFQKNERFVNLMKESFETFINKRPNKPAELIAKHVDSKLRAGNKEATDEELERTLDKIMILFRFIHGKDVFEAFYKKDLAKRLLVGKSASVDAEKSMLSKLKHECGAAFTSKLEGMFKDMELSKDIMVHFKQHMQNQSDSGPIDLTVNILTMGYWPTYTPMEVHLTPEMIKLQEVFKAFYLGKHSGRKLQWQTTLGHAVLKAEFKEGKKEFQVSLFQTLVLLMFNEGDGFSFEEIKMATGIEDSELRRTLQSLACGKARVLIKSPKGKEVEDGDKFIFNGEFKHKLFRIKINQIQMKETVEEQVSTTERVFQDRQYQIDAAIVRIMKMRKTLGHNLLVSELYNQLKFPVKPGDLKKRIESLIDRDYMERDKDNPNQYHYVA
Chain of CRL4^DCAF1 (FL) (CUL4A-RBX1-DDB1-DCAF1), unneddylated (P62877 whole entry): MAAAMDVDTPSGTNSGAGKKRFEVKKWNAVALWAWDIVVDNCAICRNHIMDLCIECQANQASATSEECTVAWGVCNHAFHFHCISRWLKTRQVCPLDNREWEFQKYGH
Chain of CRL4^DCAF1 (FL) (CUL4A-RBX1-DDB1-DCAF1), unneddylated (Q16531 whole entry): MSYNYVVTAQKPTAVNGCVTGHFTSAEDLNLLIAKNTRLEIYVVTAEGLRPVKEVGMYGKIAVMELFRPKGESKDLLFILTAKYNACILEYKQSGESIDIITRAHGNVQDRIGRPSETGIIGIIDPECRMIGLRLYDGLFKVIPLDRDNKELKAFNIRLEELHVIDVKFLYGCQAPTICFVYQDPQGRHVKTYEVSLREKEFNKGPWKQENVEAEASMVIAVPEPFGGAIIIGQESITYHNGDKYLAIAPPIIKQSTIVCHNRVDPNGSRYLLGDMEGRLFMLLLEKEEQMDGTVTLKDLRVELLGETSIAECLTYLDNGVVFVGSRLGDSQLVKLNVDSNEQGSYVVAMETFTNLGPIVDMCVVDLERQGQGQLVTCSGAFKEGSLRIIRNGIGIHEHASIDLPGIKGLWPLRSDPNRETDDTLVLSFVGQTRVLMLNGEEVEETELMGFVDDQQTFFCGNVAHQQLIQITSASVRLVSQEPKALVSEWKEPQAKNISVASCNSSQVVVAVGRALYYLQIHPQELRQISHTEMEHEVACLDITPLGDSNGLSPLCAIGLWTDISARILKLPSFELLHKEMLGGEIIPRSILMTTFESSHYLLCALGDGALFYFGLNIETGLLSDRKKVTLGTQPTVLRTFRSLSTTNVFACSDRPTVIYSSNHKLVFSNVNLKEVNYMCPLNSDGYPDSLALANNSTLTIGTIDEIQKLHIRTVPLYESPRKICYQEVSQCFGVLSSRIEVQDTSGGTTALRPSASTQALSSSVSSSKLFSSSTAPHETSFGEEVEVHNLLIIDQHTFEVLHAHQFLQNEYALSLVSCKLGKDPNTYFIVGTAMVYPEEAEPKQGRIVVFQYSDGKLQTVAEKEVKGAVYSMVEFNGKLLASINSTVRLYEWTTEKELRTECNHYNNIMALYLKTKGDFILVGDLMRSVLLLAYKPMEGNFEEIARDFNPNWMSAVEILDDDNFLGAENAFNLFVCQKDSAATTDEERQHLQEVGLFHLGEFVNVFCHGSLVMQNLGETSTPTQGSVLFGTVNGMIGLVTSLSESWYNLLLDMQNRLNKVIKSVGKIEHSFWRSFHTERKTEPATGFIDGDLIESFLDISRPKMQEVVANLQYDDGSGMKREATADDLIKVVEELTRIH
Chain of CRL4^DCAF1 (FL) (CUL4A-RBX1-DDB1-DCAF1), unneddylated (Q9Y4B6 whole entry): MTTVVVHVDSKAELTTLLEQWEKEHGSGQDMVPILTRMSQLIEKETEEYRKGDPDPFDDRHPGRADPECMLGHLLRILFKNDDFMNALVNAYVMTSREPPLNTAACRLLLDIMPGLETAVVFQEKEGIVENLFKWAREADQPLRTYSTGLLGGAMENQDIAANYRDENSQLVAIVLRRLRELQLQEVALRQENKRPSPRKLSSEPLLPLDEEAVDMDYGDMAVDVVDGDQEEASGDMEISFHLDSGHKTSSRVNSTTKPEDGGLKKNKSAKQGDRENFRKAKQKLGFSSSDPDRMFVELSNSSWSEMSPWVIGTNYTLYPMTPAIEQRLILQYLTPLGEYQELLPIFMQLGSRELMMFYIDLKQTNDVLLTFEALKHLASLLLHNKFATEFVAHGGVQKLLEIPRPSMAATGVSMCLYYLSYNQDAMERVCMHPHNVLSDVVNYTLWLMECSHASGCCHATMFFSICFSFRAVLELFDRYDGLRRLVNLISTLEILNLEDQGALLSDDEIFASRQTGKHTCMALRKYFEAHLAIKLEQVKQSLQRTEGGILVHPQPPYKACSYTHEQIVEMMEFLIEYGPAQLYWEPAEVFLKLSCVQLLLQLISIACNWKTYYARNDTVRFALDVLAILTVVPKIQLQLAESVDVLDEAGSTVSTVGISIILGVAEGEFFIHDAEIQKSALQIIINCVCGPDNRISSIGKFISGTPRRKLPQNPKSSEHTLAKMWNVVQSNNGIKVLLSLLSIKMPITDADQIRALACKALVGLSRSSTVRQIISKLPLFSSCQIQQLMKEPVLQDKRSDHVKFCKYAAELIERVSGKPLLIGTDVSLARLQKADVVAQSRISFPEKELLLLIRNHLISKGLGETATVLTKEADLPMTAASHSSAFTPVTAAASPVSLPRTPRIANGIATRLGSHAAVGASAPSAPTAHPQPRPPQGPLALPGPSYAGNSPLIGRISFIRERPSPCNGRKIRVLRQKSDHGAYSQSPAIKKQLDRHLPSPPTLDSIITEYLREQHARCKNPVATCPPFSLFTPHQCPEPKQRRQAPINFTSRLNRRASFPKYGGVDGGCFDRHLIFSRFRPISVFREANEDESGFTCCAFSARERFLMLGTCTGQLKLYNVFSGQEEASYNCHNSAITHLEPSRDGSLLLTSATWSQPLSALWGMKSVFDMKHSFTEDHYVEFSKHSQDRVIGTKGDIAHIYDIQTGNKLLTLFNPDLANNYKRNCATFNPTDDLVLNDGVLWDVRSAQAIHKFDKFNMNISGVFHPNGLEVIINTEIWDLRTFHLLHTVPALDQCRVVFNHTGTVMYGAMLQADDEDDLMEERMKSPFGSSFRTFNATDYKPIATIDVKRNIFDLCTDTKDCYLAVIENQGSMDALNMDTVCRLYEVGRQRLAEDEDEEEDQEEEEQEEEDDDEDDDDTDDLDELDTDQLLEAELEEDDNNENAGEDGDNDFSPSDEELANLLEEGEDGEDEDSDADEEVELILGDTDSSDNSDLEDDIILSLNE

stoichiometry N [1]: 4
stoichiometry N [2]: 4
Substance: CRL4^DCAF1 (FL) (CUL4A-RBX1-DDB1-DCAF1), unneddylated (from UniProt Q13619;P62877;Q16531;Q9Y4B6) (complex)

stoichiometry N [3]: 2
Substance: CRL4^DCAF1 (FL) (R1247A) mutant (from UniProt Q13619;P62877;Q16531;Q9Y4B6) (complex)

stoichiometry N [4]: 4
Substance: CRL4^DCAF1 (FL)-VPR complex (from UniProt Q13619;P62877;Q16531;Q9Y4B6;P12520)

stoichiometry N [5]: 2
Substance: CRL4^DCAF1 (FL)-VPR-UNG2 complex (from UniProt Q13619;P62877;Q16531;Q9Y4B6;P12520;P13051-1)

stoichiometry N [6]: 4
Substance: CRL4^DCAF1(FL)-MERLIN complex (from UniProt Q13619;P62877;Q16531;Q9Y4B6;P35240)

stoichiometry N [7]: 2
Substance: DDB1-DCAF1 (FL) sub-complex (from UniProt Q16531;Q9Y4B6)
